Assay results published in patent publication US20110275102.
Values joined by “and” are separate entries in the source; they are usually repeats but may differ in a detail not shown here. Equal values may be shown once.

How the values were obtained:
[1] = test system: T1, RPRTSSE
T1 sequence: RPRTSSE

[2] = test system: T2, RPRTNSF
T2 sequence: RPRTNSF

[3] = test system: T3, RPRTSSL
T3 sequence: RPRTSSL

[4] = test system: T4, RPRTGSF
T4 sequence: RPRTGSF

[5] = test system: T5, RPRTSSV
T5 sequence: RPRTSSV

[6] = test system: T6, RPRTASF
T6 sequence: RPRTASF

[7] = test system: T7, RPRNSSF
T7 sequence: RPRNSSF

[8] = test system: T8, RPRGGSF
T8 sequence: RPRGGSF

[9] = test system: T9, RPRGASF
T9 sequence: RPRGASF

[10] = test system: T10, Crosstide GRPRTSSFAEG
T10 sequence: GRPRTSSFAEG

[11] = test system: T11, RPRTSS
T11 sequence: RPRTSS

[12] = test system: T12, RPRASSF
T12 sequence: RPRASSF

[13] = test system: T13, RPRTSTF
T13 sequence: RPRTSTF

[14] = test system: T14, RPRAGSF
T14 sequence: RPRAGSF

[15] = test system: T15, RPRAATF
T15 sequence: RPRAATF

[16] = test system: T16, KPRTSSF
T16 sequence: KPRTSSF

[17] = test system: T17, RPKTSSF
T17 sequence: RPKTSSF

[18] = test system: T18, RPRTSSF
T18 sequence: RPRTSSF

[19] = test system: T19, RPRTSSK
T19 sequence: RPRTSSK

[20] = test system: myelin basic protein (MBP)
[21] = test system: T20, RPRTSSFA
T20 sequence: RPRTSSFA

[22] = test system: T21, KKKNRTLSVA
T21 sequence: KKKNRTLSVA

[23] = test system: T22, GRPRTSSF
T22 sequence: GRPRTSSF

[24] = test system: T23, KKRNRTLSVA
T23 sequence: KKRNRTLSVA

[25] = test system: T24, KKRNKTLSVA
T24 sequence: KKRNKTLSVA

[26] = test system: T25, RPRVSSF
T25 sequence: RPRVSSF

[27] = test system: T26, RPRTSSA
T26 sequence: RPRTSSA

[28] = test system: T27, KKRNRTLTV
T27 sequence: KKRNRTLTV

[29] = test system: T28, RPRAASF
T28 sequence: RPRAASF

[30] = test system: histone H2B
[31] = test system: T29, RPRTVSF
T29 sequence: RPRTVSF

[32] = test system: T30, GRARTSSFA
T30 sequence: GRARTSSFA

[33] = test system: T31, RPRGSSF
T31 sequence: RPRGSSF

HA-RAC-PKα immunoprecipitated from IGF-1 stimulated 293 cells
Km [1]: > 500 µM
V (0.1 mM): relative rate of phosphorylation at 0.1 mM peptide (relative to peptide 1) [1]: 9
Km [2]: 30 µM
V (0.1 mM): relative rate of phosphorylation at 0.1 mM peptide (relative to peptide 1) [2]: 81
Vmax [2]: 300 U/mg
Km [3]: 8 µM
V (0.1 mM): relative rate of phosphorylation at 0.1 mM peptide (relative to peptide 1) [3]: 104
Vmax [3]: 278 U/mg
Km [4]: 25 µM
V (0.1 mM): relative rate of phosphorylation at 0.1 mM peptide (relative to peptide 1) [4]: 77
Vmax [4]: 233 U/mg
Km [5]: 21 µM
V (0.1 mM): relative rate of phosphorylation at 0.1 mM peptide (relative to peptide 1) [5]: 102
Vmax [5]: 300 U/mg
Km [6]: 20 µM
V (0.1 mM): relative rate of phosphorylation at 0.1 mM peptide (relative to peptide 1) [6]: 83
Vmax [6]: 213 U/mg
Km [7]: > 500 µM
V (0.1 mM): relative rate of phosphorylation at 0.1 mM peptide (relative to peptide 1) [7]: 21
Km [8]: 105 µM
V (0.1 mM): relative rate of phosphorylation at 0.1 mM peptide (relative to peptide 1) [8]: 55
Vmax [8]: 345 U/mg
Km [9]: 105 µM
V (0.1 mM): relative rate of phosphorylation at 0.1 mM peptide (relative to peptide 1) [9]: 37
Vmax [9]: 160 U/mg
Km [10]: 4 µM
V (0.1 mM): relative rate of phosphorylation at 0.1 mM peptide (relative to peptide 1) [10]: 100
Vmax [10]: 250 U/mg
Km [11]: > 500 µM
V (0.1 mM): relative rate of phosphorylation at 0.1 mM peptide (relative to peptide 1) [11]: 2
Km [12]: 12 µM
V (0.1 mM): relative rate of phosphorylation at 0.1 mM peptide (relative to peptide 1) [12]: 89
Vmax [12]: 230 U/mg
Km [13]: 30 µM
V (0.1 mM): relative rate of phosphorylation at 0.1 mM peptide (relative to peptide 1) [13]: 78
Vmax [13]: 240 U/mg and 243 U/mg
Km [14]: 49 µM
V (0.1 mM): relative rate of phosphorylation at 0.1 mM peptide (relative to peptide 1) [14]: 70
Vmax [14]: 114 U/mg
Km [15]: 25 µM
Vmax [15]: 230 U/mg
Km [16]: > 500 µM
V (0.1 mM): relative rate of phosphorylation at 0.1 mM peptide (relative to peptide 1) [16]: 4
Km [17]: > 500 µM
V (0.1 mM): relative rate of phosphorylation at 0.1 mM peptide (relative to peptide 1) [17]: 2
Km [18]: 5 µM
V (0.1 mM): relative rate of phosphorylation at 0.1 mM peptide (relative to peptide 1) [18]: 105
Vmax [18]: 260 U/mg
Km [19]: 80 µM
V (0.1 mM): relative rate of phosphorylation at 0.1 mM peptide (relative to peptide 1) [19]: 67
Vmax [19]: 308 U/mg
Km [20]: MBP with a Km of 5 µM and a Vmax of 25 U/mg
Vmax [20]: MBP with a Km of 5 µM and a Vmax of 25 U/mg
Km [21]: 8 µM
V (0.1 mM): relative rate of phosphorylation at 0.1 mM peptide (relative to peptide 1) [21]: 109
Vmax [21]: 305 U/mg
Km [22]: 185 µM
Vmax [22]: 270 U/mg
Km [23]: 8 µM
V (0.1 mM): relative rate of phosphorylation at 0.1 mM peptide (relative to peptide 1) [23]: 129
Vmax [23]: 385 U/mg
Km [24]: 80 µM
Vmax [24]: 300 U/mg
Km [25]: > 500 µM
Km [26]: 25 µM
V (0.1 mM): relative rate of phosphorylation at 0.1 mM peptide (relative to peptide 1) [26]: 77
Vmax [26]: 273 U/mg
Km [27]: 250 µM
V (0.1 mM): relative rate of phosphorylation at 0.1 mM peptide (relative to peptide 1) [27]: 30
Vmax [27]: 265 U/mg
Km [28]: 388 µM
Vmax [28]: 330 U/mg
Km [29]: 25 µM
V (0.1 mM): relative rate of phosphorylation at 0.1 mM peptide (relative to peptide 1) [29]: 77
Vmax [29]: 215 U/mg
Km [30]: histone H2B with a Km of 5 µM and a Vmax of 68 U/mg
Vmax [30]: histone H2B with a Km of 5 µM and a Vmax of 68 U/mg
Km [31]: 30 µM
V (0.1 mM): relative rate of phosphorylation at 0.1 mM peptide (relative to peptide 1) [31]: 89
Vmax [31]: 365 U/mg
Km [32]: Km of 10 µM and Vmax of 230 U/mg
Vmax [32]: Km of 10 µM and Vmax of 230 U/mg
Km [33]: 60 µM
V (0.1 mM): relative rate of phosphorylation at 0.1 mM peptide (relative to peptide 1) [33]: 37
Vmax [33]: 163 U/mg

MAPKAP kinase-1 purified from rabbit skeletal muscle
Km [10]: 2 µM
Vmax [10]: 790 U/mg
Km [13]: > 500 µM
Vmax [13]: > 500 U/mg
Km [15]: > 500 µM
Km [18]: 12 µM
Vmax [18]: 840 U/mg
Km [29]: 20 µM
Vmax [29]: 1020 U/mg
